± gives the uncertainty stated by the source.
Assay: amyloid nucleation score (Sup35N fusion, yeast selection) (log enrichment); library NNK1; higher = more nucleation; inactive = no reads after selection
Outline: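 Libraries of peptides of 20 random codons fused to Sup35N were expressed in psi-negative yeast and induced 24 hours with 100 μM copper sulfate. Selection was 7 days at 30°C on medium lacking adenine and uracil, and plasmid inserts were Illumina-sequenced before and after selection. Nucleation score is the DiMSum log enrichment of output over input reads, centred on the mode score of non-aggregating sequences, and sequences with under 100 input reads were left out.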

Substance | amyloid nucleation score
TFSQWWVRSCFGTRMNWCLV | 0.174 ± 1.2
RVKEPFRTYSRTALMC | 0.306 ± 0.41
WYSTFGAMKKLGTYPCSGVN | -0.46 ± 1
TSGLENVSIVNGLPGLDSLV | 0.11 ± 0.99
MRLWLIWYISVMLTQNPRLW | 1.22 ± 0.46
IINKS | -0.766 ± 2.4
RSFNYVLSTL | 0.45 ± 0.42
MCCCLDDEGDHLNWFKRLRC | 1.52 ± 0.49
TSMVNI | 0.084 ± 0.88
TAVGSRGFPRNHLRPKNTSG | -0.309 ± 0.53
GICLIAVVRGLIERGNGETE | 0.206 ± 1.1
EWVLFDAHAGRLVVPEH | -0.995 ± 1
FIPQFYSVAMKLGCVRFVVL | 0.577 ± 0.56
VFALMRISSNSMSKCQFVCD | -0.187 ± 0.39
SHRSRGLANRSCDGVPTVRR | 1.84 ± 0.46
RVFQSNPCGT | 0.109 ± 1.4
ASFEKFNNVTLGCSTDSE | 0.666 ± 0.48
SNFFVRFNTVTNFSMWDEYY | inactive
SMHHGFYCDVWLGGVILRCK | 0.047 ± 0.56
NPVGSSRVVYRAPNHVIV | 1.18 ± 0.58
CIVVYLSLY | 3.32 ± 0.099
WLGSYIVFLIRMETYDWWIV | -0.114 ± 0.38
HSVFVMVCSSCMVG | 8.892 ± 0.068
KRVLNLFGEESFAGMIWIDY | -0.125 ± 0.97
PVGNPLD | -0.039 ± 0.18

Substance | amyloid nucleation score
YDTFSPRSWS | 2.02 ± 0.62
SVASRACW | 0.139 ± 0.8
PYVFLGVMDPRVYDMLLHAN | -0.085 ± 0.24
MYTQGMYQEDSRDGNGW | -0.189 ± 0.25
FFLMISKLAKWKGVARKTAL | -0.937 ± 2.1
SRAAFVSSKPYMSWGVTYVH | -0.792 ± 1.3
FTVGYGSYGLT | 0.306 ± 0.54
HQFSVHIPCCYSVPGNLYGW | 0.888 ± 0.73
QLFMHPRGIMKGLF | 0.581 ± 0.52
LRFRMNSLLVKWFFP | -0.199 ± 0.34
IDFYVCDMC | 7.857 ± 0.058
YYTYDGVGSLICTCRFTRVV | -0.356 ± 0.49
VYTKYICWGCVNAQRFDHGT | 8.269 ± 0.049
GKSEVLTFGEGAHVGRSRFY | 0.367 ± 0.46
CLFLWVTSVL | 1.19 ± 0.57
RSGMFMGDWYSAAWKGKTSS | 0.137 ± 0.31
RNTRTDSSTQTLLIVSHH | 0.011 ± 0.51
TSKGCQ | inactive
FTAKSL | -0.324 ± 0.38
RNVLWMILMYRCRSGGLCNG | 0.737 ± 0.52
LMWGIAYCYSVDLC | 5.386 ± 0.051
VRWCYILQQ | inactive
YDPRIGLVSVGNVRNNSV | -1.48 ± 1.4
DTVSLWLPARMTNDNFQDLS | 0.399 ± 0.22
NFRHFILVYLMPFT | inactive

Substance | amyloid nucleation score
GLWFVC | 0.374 ± 0.75
CFRHR | 0.428 ± 0.5
CLVELVYFCGLSVGQ | -0.17 ± 0.85
WRLTSS | -0.809 ± 0.45
FLYVNLL | 0.091 ± 0.19
YDEGWANT | 0.048 ± 1.5
VDCLFLKHHFFLTVSSMVRN | 1.43 ± 0.84
GSERPNPV | 0.958 ± 0.63
CPHALYKSLIIPGSMFYKVR | -1.04 ± 1.7
DLDSVGTVMGDQGDFS | -0.416 ± 0.55
YVPSRSGYIDFAGRNNRYSI | -0.401 ± 0.73
MWTFWFSVCTYLFL | 2.37 ± 0.2
NMRYHGISCRYRKYYFRWLD | -0.261 ± 0.31
NAIGILRHLTRMFPFD | 0.747 ± 0.44
RYYLISEPILWIYGY | -0.031 ± 0.33
YVRWMSLAPSVQWH | 1.11 ± 0.19
FRDFMMTFMFPRDMSSGAVG | 0.067 ± 0.4
VKLTNLGFRGKFDVVDCHWI | -0.546 ± 0.34
MVVFMYVST | 0.289 ± 0.39
SIKCGVVHLNRMVRAQSKLC | 0.136 ± 1.5
RCVSFPIWRFIPEVLVIWLG | -1.04 ± 1.3
CDVVVSSF | -0.117 ± 0.88
HSSSSHGEKCGYVGNSHPSS | 0.691 ± 0.92
LCCKVLLALSAPGQFSVHNA | -0.621 ± 1.4
MFCLALECEVHLGMHYYNHA | 0.906 ± 0.2

Substance | amyloid nucleation score
FIRLLGSMV | 0.622 ± 0.84
SRPDTQPEEAQ | -0.02 ± 0.21
TPRYVLLVC | -0.983 ± 2.4
QDCARH | inactive
SDVLYIFTYMDKCQRSRLGV | 0.096 ± 0.26
ILCKVPVVASSNGS | -0.35 ± 0.5
GPWAGVRVRSTCLVRYSWYG | 0.242 ± 0.44
SLSMDIAVRSTTNRHANNIL | -0.494 ± 1.1
LLLGW | -0.102 ± 0.32
NVDKHVWFGGVIVVNLWHIR | 6.827 ± 0.054
FFYNLFDILFFSFFRILSII | inactive
IWSSVQEFLGCMFWVIRINH | 1.77 ± 0.45
IIFVEWNSGRAC | -0.526 ± 0.51
WPRNRHGVVILLVVIANSCS | -0.379 ± 0.76
SSSSML | -0.202 ± 0.47
LLRGSCFMCSLLDYALVKEG | 3.84 ± 0.1
NKLAHSNVDKAKLRDNPQAG | -0.407 ± 1
IVVSQPVFEGYIWLLNVAGG | 4.42 ± 0.094
AWNTGSIARHSFSRIVSTCD | 0.182 ± 0.39
MVFSLSCFKSFTCYTYMCTA | 7.15 ± 0.055
VLPFSLFAYAACFVLTLTYV | 0.274 ± 1.1
ALRKVYCSFIHNIWACSWAI | inactive
YIVGPIGVFSY | 2.25 ± 0.55
TYNRGMGGRISVFCLFTGVM | 0.078 ± 0.21
SYGSKFWEFLHFGESV | -0.179 ± 0.66

Substance | amyloid nucleation score
AAGRMIRIMVTGVRLDKDKD | -0.257 ± 1.7
RSGIILLVGVS | -0.655 ± 0.68
QNMLFTIKRFSNQPDTVVFE | -0.202 ± 0.49
IVVNIYVRWYPVGTGWDYLT | inactive
SSIMHSG | 0.925 ± 1.1
TWNKCKVADSLFMTRIIMVL | 0.305 ± 0.41
VPILFRLLVNTSPYNGPLGL | -0.042 ± 0.56
DLNCFAFVWVIIYTRDGWTI | -0.353 ± 0.3
YGQMVIFGPVMLMAVLTW | 3.33 ± 0.093
PYKLFHVVSCCRTQGDNVAK | -0.813 ± 0.49
ELVKFIVRADNDSWVGRASV | 0.267 ± 0.93
TNILLLHFSDHEFGLEFRYL | 1.68 ± 0.17
SLRWSQSPFYFVTSIGRQGG | 0.585 ± 0.55
CECHPFHPRVLVYGRYRFNP | 0.033 ± 0.38
VKRGHNGGSAITISLDLYLF | 5.11 ± 0.069
TETLADVLALERLPGCMKFI | 0.259 ± 0.68
KIRRGCMLLGQHVWTT | 0.207 ± 0.35
GFWQLFLRVIPLFSVGYSNC | 0.875 ± 0.69
CMWPFTDYTIIKTSLYTWTN | -1.09 ± 0.53
VYVSFTRNCVGCIGLD | 4.62 ± 0.061
GIWPLGFGKFGSIFRFANVR | 0.939 ± 0.6
FYSFWMGRTCMFIVTRVNSA | -0.091 ± 0.31
VVRLG | 0.124 ± 1
CTTNIPAKLHLNSVVRVVRA | -1.27 ± 2.7
AMCLV | -0.373 ± 0.88

Substance | amyloid nucleation score
RTDWYGEDWHYV | -1.31 ± 1.4
LKGVIYAVANWGWIISGHEV | 0.837 ± 0.23
IRLRPERDLGVAWLCIGCKR | -0.314 ± 1.2
MWWHVSSMQDRDSGDFNGLL | 0.323 ± 0.22
RKSPATVVFSRPSLWLYGRR | 2.97 ± 0.094
FQRGKLTASLSMVHSSRVCF | -1.6 ± 2.4
QYDFQ | -0.532 ± 0.88
RVSVDRPQRVGTGSPCCGGD | 2.77 ± 0.11
MRSLSVLFGIRTCLTVQWSK | 0.276 ± 0.66
NDTMWMSSGLSPCVSSPSLG | -0.252 ± 1.4
ARWCEGRYSFILNKQQKLAK | 0.662 ± 0.49
DWMNYVWTVTRIGSYSMVGI | 1 ± 0.68
SIKFIRTYWWITNSVDKFV | inactive
FLKGYHCVNDDSGNFFIVYI | 2.02 ± 0.11
HIRCHVRTGEAARHRQVAQY | 0.136 ± 0.39
DWPFQYDVKSRLVILLWFVR | 0.086 ± 1.4
LGALIYNSAFN | inactive
MGAIFCNGSK | 0.371 ± 0.67
PWCTGRLTGSNCKVYWITRS | 0.515 ± 0.36
ICSGGYLVWELPSGTADQVM | 0.25 ± 0.48
FTFYYCIRY | 0.673 ± 0.47
SSRFVWIASKINILYNFQTY | -0.403 ± 0.7
ILYTSTVGTQLPKDGLDC | 0.593 ± 0.34
MMRTWGLFRVGRWESWRPVR | 0.26 ± 0.78
FDNTGDCTNFYQLSDWSP | 1.05 ± 0.22

Substance | amyloid nucleation score
YGYLTITPVQVYIQRTSTWT | 4.16 ± 0.12
FHTRVKEWVGPAFLGSANLG | 0.25 ± 0.5
EDHVVYQSADRFLRNCNWEY | 0.266 ± 0.43
SYYMYLN | -0.19 ± 0.26
DNWSMGYPEETGAWGVN | 0.406 ± 0.45
FCRRGSWVEPLLTCRYAMEA | -0.155 ± 0.64
IASLRIIDSIQFISVNSCYG | 0.356 ± 0.4
MPNSPQS | -0.404 ± 0.3
VSLCEMNRSFCWDAGASGRV | 0.621 ± 1
TIFVYSKTNL | 2.64 ± 0.18
GIVSAESWSLLQDRHFGAVK | 0.578 ± 0.55
MFCFKGHQSRDLRTFDYIW | 0.1 ± 0.27
CSAFDVIN | -0.556 ± 1.4
GVMPWLR | -0.123 ± 0.99
EVEQVHLFSAVINSWCGDVF | 0.575 ± 0.41
GPVRQHCYCDMTTVFRILGA | -1.55 ± 1.4
SLNVNLMSRVYSSAREGGVS | 1.73 ± 0.2
FCTLALHNTI | 1.24 ± 0.64
YHVRLV | 0.147 ± 0.34
ELGYSTHCIMS | -0.735 ± 0.66
ITLIGQHRFLLVFSTNQLNH | 0.46 ± 0.3
EALCSTSEGILHKEWF | 0.178 ± 0.28
YMRSLFCISTQLSRAILVLP | 0.478 ± 1
DFLNWWCRCVTFNSGRSGFV | 0.392 ± 0.6

Source: the supplement of paper PMC12042874
